Test results reported in patent US20210255174.

Assays:
[1] = test system: Control peptide #112: [5-Fam]TRIDEANQRATK[DABCYL]-Hex
[2] = test system: Control peptide #113: [4-Mu]TRIDEANQRATK[DABCYL]-Hex

Trypsin showed a KM [1] of 3.75 µM and a KM [2] of 13.3 µM.
